Assay results from PMC5021334.

How the values were obtained:
[1] = biological target: GST-DENV2 NS5 residues 865-900 (Dengue virus serotype 2); experiment: pull-down
[2] = biological target: GST-DENV3 NS5 residues 865-900 (Dengue virus serotype 3); experiment: pull-down
[3] = biological target: GST-DENV2 NS5 residues 865-900 (Dengue virus serotype 2); experiment: ELISA; solid-phase microtitre plate assay: GST-NLS from cell lysate captured on a glutathione coated plate and washed (PBS, 0.05% Tween-20); Impα in 2-fold serial dilutions in PBS from 12.5 μM, 1 h at RT; bound Impα detected with anti-6x His tag HRP antibody and TMB at 450 nm; one-site specific binding …
[4] = biological target: GST-DENV1 NS5 residues 865-899 (Dengue virus serotype 1); experiment: as above
[5] = biological target: GST-DENV3 NS5 residues 865-900 (Dengue virus serotype 3); experiment: as above
[6] = biological target: GST-DENV4 NS5 residues 865-901 (Dengue virus serotype 4); experiment: as above

mouse importin-α lacking the auto-inhibitory importin-β binding domain (Impα) (domain or fragment)
Kd [1]: 270 nM | Kd [2]: 370 nM | Kd [3]: 4.53 µM | Kd [4]: 54 µM | Kd [5]: 660 nM | Kd [6]: 18.5 µM
